Measurements as given in publication PMC9544093.

What was measured:
[1] = target: Bovine γ-globulin (Sigma-Aldrich G5009), a polyvalent antibody mixture of ~80 % IgG, ~10 % IgM and <10 % IgA (bovine); assay: fluorescence polarisation; steady-state fluorescence anisotropy in a high-pressure cell; 0.43 uM dansyl-labelled γ-globulin titrated with 0-250 uM unlabelled γ-globulin; 0.5 M TMAO; 20 °C; p = 500 bar; fitted to a 1:1 (monomer to dimer) model
[2] = target: Bovine γ-globulin (Sigma-Aldrich G5009), a polyvalent antibody mixture of ~80 % IgG, ~10 % IgM and <10 % IgA (bovine); assay: fluorescence polarisation; steady-state fluorescence anisotropy in a high-pressure cell; 0.43 uM dansyl-labelled γ-globulin titrated with 0-250 uM unlabelled γ-globulin; neat buffer; 20 °C; p = 500 bar; fitted to a 1:1 (monomer to dimer) model
[3] = target: Bovine γ-globulin (Sigma-Aldrich G5009), a polyvalent antibody mixture of ~80 % IgG, ~10 % IgM and <10 % IgA (bovine); assay: fluorescence polarisation; steady-state fluorescence anisotropy; 0.43 uM dansyl-labelled γ-globulin titrated with 0-250 uM unlabelled γ-globulin; 0.5 M TMAO; 20 °C; pressure not named for this value (ambient implied); fitted to a 1:1 (monomer to dimer) model
[4] = target: Bovine γ-globulin (Sigma-Aldrich G5009), a polyvalent antibody mixture of ~80 % IgG, ~10 % IgM and <10 % IgA (bovine); assay: fluorescence polarisation; steady-state fluorescence anisotropy; 0.43 uM dansyl-labelled γ-globulin titrated with 0-250 uM unlabelled γ-globulin; neat buffer; 20 °C; pressure not named for this value (ambient implied); fitted to a 1:1 (monomer to dimer) model

Substance: Bovine γ-globulin (Sigma-Aldrich G5009), a polyvalent antibody mixture of ~80 % IgG, ~10 % IgM and <10 % IgA
- Ka [1]: 997 M⁻¹
- Ka [2]: 1530 M⁻¹
- Ka [3]: 592 M⁻¹
- Ka [4]: 882 M⁻¹
